This note sets out measurements from patent US20090311267A1 (UNIVERSITY OF WURZBURG, published 2009).

“And” between values parts separate entries of the source, which are not always exact repeats. Equal values may be shown once.

In test [1] the target is human platelet glycoprotein GPIb (on human platelets) (human, UniProt P07359 17-652). Briefly: cell-based or functional assay.
The target in test [2] is T1, (1-289) recombinant (r) GPIbα fragment expressed by Chinese hamster ovary cells (human, UniProt P07359 17-305).
T1 construct: they seem to count on the mature chain, not on the precursor; Fragment obtained from Meyer et al; also called rGPIb-fragment; recombinant GPIbα fragment (His1-Val289)
Briefly: ELISA: inhibition of botrocetin (0.5 µg/ml)-induced binding of vWF to rGPIbα captured on 2D4.

Test [3] concerns the target T1, (1-289) recombinant (r) GPIbα fragment …. Briefly: ELISA: inhibition of ristocetin (300 µg/ml)-induced binding of vWF to rGPIbα captured on 2D4.

B1: 6B4 Fab fragments (Fab, V domains shown)
VH: QVQLQESGPGLVAPSQSLSITCTVSGISLNRYGVHWVRQPPGKGLEWLGVIWTGGSTNYNSALMSRLSISKDNSKSQVFLKMNSLQTDDTAMYYCARDRSTMITAYAMDYWGQGTTVTVSS
VL: DIELTQSPAIMSASPGEKVTMTCSASSSVNYMHWFQQESGTFPKRRIYDTSKLASGVPARLSGSGSGTEFTLEISRVKAEDVGVYYCQQLVEYPLTFGAGTKLELK
The term IC50 denotes the concentration at which inhibition is half-maximal. As to B1, in test [1], the “IC50 of botrocetin-(0.5 µg/ml) induced human platelet agglutination” value was 2 µg/ml and 40 nmol/L; the “IC50 of ristocetin-(1 mg/ml) induced human platelet agglutination” value was 1.2 µg/ml and 24 nmol/L. In test [2], the IC50 was 2.5 µg/mL and 50 nM. In addition, in test [3], the IC50 was 1.8 µg/mL and 36 nM.
